From the supplement of paper PMC5998384

Tests used:
[1] = tested on: HeLa Kyoto; test: solubility in G1/S (NP-40 vs SDS abundance) (log2 ratio); higher = more soluble; settings: cell cycle stage: G1/S
[2] = tested on: HeLa Kyoto; test: solubility change mitosis vs G1/S (difference of NP-40 vs SDS log2 ratios) (log2 ratio difference); higher = more soluble in mitosis
[3] = tested on: HeLa Kyoto; test: thermal stability score vs G1/S (z-score of summed log2 fold changes over temperatures); higher = more thermally stable than in G1/S
[4] = cell cycle stage: early G1 (4.5 h after nocodazole release)
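Wherever solubility change mitosis vs G1/S (difference of NP-40 vs SDS log2 ratios) is given: synchronized HeLa Kyoto cells (double thymidine block for G1/S, nocodazole release for mitosis), protein amounts in NP-40 versus SDS lysates quantified by mass spectrometry, three biological replicates.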
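Wherever solubility in G1/S (NP-40 vs SDS abundance) is given: HeLa Kyoto cells arrested at G1/S by double thymidine block, proteins quantified by TMT10plex mass spectrometry in mild NP-40 versus SDS extracts, three biological replicates.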
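Wherever thermal stability score vs G1/S (z-score of summed log2 fold changes over temperatures) is given: synchronized HeLa Kyoto cells, proteins quantified by TMT10plex mass spectrometry, three biological replicates, mitosis taken 0.5 h after nocodazole release, G1/S directly after double thymidine block.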

Row | Substance | solubility change mitosis (log2) [2] | other results
1 | MGDNPFQPKSNSKMAELFMECEEEELEPWQKKVKEVEDDDDDEPIFVGEISSSKPAISNILNRVNPSSYSRGLKNGALSRGITAAFKPTSQHYTNPTSNPVPASPINFHPESRSSDSSVIVQPFSKPGYITNSSRVVSNKSSELLFDLTQDTGLSHYQGGPTLSMAGMSESSFLSKRPSTSEVNNVNPKKPKPSESVSGANSSAVLPSVKSPSVTSSQAMLAKGTNTSSNQSKNGTPFPRACPKCNIHFNLLDPLKNHMKYCCPDMINNFLGLAKTEFSSTVNKNTTIDSEKGKLIMLVNDFYYGKHEGDVQEEQKTHTTFKCFSCLKILKNNIRFMNHMKHHLELEKQSSESWENHTTCQHCYRQFPTPFQLQCHIESTHTPHEFSTICKICELSFETEHVLLQHMKDNHKPGEMPYVCQVCNYRSSSFSDVETHFRTSHENTKNLLCPFCLKVIKIATPYMHHYMKHQKKGIHRCTKCRLQFLTCKEKMDHKTQHHRTFIKPKQLEGLPPGTKVTIRASVGPLQSGASPTPSISASASTLQLSPPRTKNITAKNPAKSNTSKPNTVKSNASKPNTSKPNGSKSKYKPKISNMQKKQSTLASSNKKSKVNTALRNLRYRRGIHKCIECCSEIKDFANHFPTYVHCSFCRYNTSCSKAYVNHMMSFHSNRPSKRFCIFKKHSENLRGITLVCLNCDFLSDVSGLDNMATHLSQHKTHTCQVVMQKVSVCIPTSEHLSELKKEAPAKEQEPVSKEIARPNMAERETETSNSESKQDKAASSKEKNGCNANSFEGSSTTKSEESITVSDKENETCLADQETGSKNIVSCDSNIGADKVEKKKQIQHVCQEMELKMCQSSENIILSDQIKDHNSSEARFSSKNIKDLRLASDNVSIDQFLRKRHEPESVSSDVSEQGSIHLEPLTPSEVLEYEATEILQKGSGDPSAKTDEVVSDQTDDIPGGNNPSTTEATVDLEDEKERS [ZNF280D] | 0.447 | solubility in G1/S (log2) [1]: -0.86
2 | MSRRRFDCRSISGLLTTTPQIPIKMENFNNFYILTSKELGRGKFAVVRQCISKSTGQEYAAKFLKKRRRGQDCRAEILHEIAVLELAKSCPRVINLHEVYENTSEIILILEYAAGGEIFSLCLPELAEMVSENDVIRLIKQILEGVYYLHQNNIVHLDLKPQNILLSSIYPLGDIKIVDFGMSRKIGHACELREIMGTPEYLAPEILNYDPITTATDMWNIGIIAYMLLTHTSPFVGEDNQETYLNISQVNVDYSEETFSSVSQLATDFIQSLLVKNPEKRPTAEICLSHSWLQQWDFENLFHPEETSSSSQTQDHSVRSSEDKTSKSSCNGTCGDREDKENIPEDSSMVSKRFRFDDSLPNPHELVSDLLC [STK17B] | -0.161 | solubility in G1/S (log2) [1]: 0.0558
3 | MAAATVGRDTLPEHWSYGVCRDGRVFFINDQLRCTTWLHPRTGEPVNSGHMIRSDLPRGWEEGFTEEGASYFIDHNQQTTAFRHPVTGQFSPENSEFILQEEPNPHMSKQDRNQRPSSMVSETSTAGTASTLEAKPGPKIIKSSSKVHSFGKRDQAIRRNPNVPVVVRGWLHKQDSSGMRLWKRRWFVLADYCLFYYKDSREEAVLGSIPLPSYVISPVAPEDRISRKYSFKAVHTGMRALIYNSSTAGSQAEQSGMRTYYFSADTQEDMNAWVRAMNQAAQVLSRSSLKRDMEKVERQAVPQANHTESCHECGRVGPGHTRDCPHRGHDDIVNFERQEQEGEQYRSQRDPLEGKRDRSKARSPYSPAEEDALFMDLPTGPRGQQAQPQRAEKNGMLPASYGPGEQNGTGGYQRAFPPRTNPEKHSQRKSNLAQVEHWARAQKGDSRSLPLDQTLPRQGPGQSLSFPENYQTLPKSTRHPSGGSSPPPRNLPSDYKYAQDRASHLKMSSEERRAHRDGTVWQLYEWQQRQQFRHGSPTAPICLGSPEFTDQGRSRSMLEVPRSISVPPSPSDIPPPGPPRVFPPRRPHTPAERVTVKPPDQRRSVDISLGDSPRRARGHAVKNSSHVDRRSMPSMGYMTHTVSAPSLHGKSADDTYLQLKKDLEYLDLKMTGRDLLKDRSLKPVKIAESDTDVKLSIFCEQDRVLQDLEDKIRALKENKDQLESVLEVLHRQMEQYRDQPQHLEKIAYQQKLLQEDLVHIRAELSRESTEMENAWNEYLKLENDVEQLKQTLQEQHRRAFFFQEKSQIQKDLWRIEDVTAGLSANKENFRILVESVKNPERKTVPLFPHPPVPSLSTSESKPPPQPSPPTSPVRTPLEVRLFPQLQTYVPYRPHPPQLRKVTSPLQSPTKAKPKVEDEAPPRPPLPELYSPEDQPPAVPPLPREATIIRHTSVRGLKRQSDERKRDRELGQCVNGDSRVELRSYVSEPELATLSGDMAQPSLGLVGPESRYQTLPGRGLSGSTSRLQQSSTIAPYVTLRRGLNAESSKATFPRPKSALERLYSGDHQRGKMSAEEQLERMKRHQKALVRERKRTLGQGERTGLPSSRYLSRPLPGDLGSVC [PLEKHA7] | 0.454 | solubility in G1/S (log2) [1]: -0.548
4 | MAKSNGENGPRAPAAGESLSGTRESLAQGPDAATTDELSSLGSDSEANGFAERRIDKFGFIVGSQGAEGALEEVPLEVLRQRESKWLDMLNNWDKWMAKKHKKIRLRCQKGIPPSLRGRAWQYLSGGKVKLQQNPGKFDELDMSPGDPKWLDVIERDLHRQFPFHEMFVSRGGHGQQDLFRVLKAYTLYRPEEGYCQAQAPIAAVLLMHMPAEQAFWCLVQICEKYLPGYYSEKLEAIQLDGEILFSLLQKVSPVAHKHLSRQKIDPLLYMTEWFMCAFSRTLPWSSVLRVWDMFFCEGVKIIFRVGLVLLKHALGSPEKVKACQGQYETIERLRSLSPKIMQEAFLVQEVVELPVTERQIEREHLIQLRRWQETRGELQCRSPPRLHGAKAILDAEPGPRPALQPSPSIRLPLDAPLPGSKAKPKPPKQAQKEQRKQMKGRGQLEKPPAPNQAMVVAAAGDACPPQHVPPKDSAPKDSAPQDLAPQVSAHHRSQESLTSQESEDTYL [TBC1D10A] | -0.147 | solubility in G1/S (log2) [1]: 0.438
5 | MSHGPKQPGAAAAPAGGKAPGQHGGFVVTVKQERGEGPRAGEKGSHEEEPVKKRGWPKGKKRKKILPNGPKAPVTGYVRFLNERREQIRTRHPDLPFPEITKMLGAEWSKLQPTEKQRYLDEAEREKQQYMKELRAYQQSEAYKMCTEKIQEKKIKKEDSSSGLMNTLLNGHKGGDCDGFSTFDVPIFTEEFLDQNKAREAELRRLRKMNVAFEEQNAVLQRHTQSMSSARERLEQELALEERRTLALQQQLQAVRQALTASFASLPVPGTGETPTLGTLDFYMARLHGAIERDPAQHEKLIVRIKEILAQVASEHL [HMG20B] | -0.0403 | solubility in G1/S (log2) [1]: 0.616
6 | MAGRVPSLLVLLVFPSSCLAFRSPLSVFKRFKETTRPFSNECLGTTRPVVPIDSSDFALDIRMPGVTPKQSDTYFCMSMRIPVDEEAFVIDFKPRASMDTVHHMLLFGCNMPSSTGSYWFCDEGTCTDKANILYAWARNAPPTRLPKGVGFRVGGETGSKYFVLQVHYGDISAFRDNNKDCSGVSLHLTRLPQPLIAGMYLMMSVDTVIPAGEKVVNSDISCHYKNYPMHVFAYRVHTHHLGKVVSGYRVRNGQWTLIGRQSPQLPQAFYPVGHPVDVSFGDLLAARCVFTGEGRTEATHIGGTSSDEMCNLYIMYYMEAKHAVSFMTCTQNVAPDMFRTIPPEANIPIPVKSDMVMMHEHHKETEYKDKIPLLQQPKREEEEVLDQGDFYSLLSKLLGEREDVVHVHKYNPTEKAESESDLVAEIANVVQKKDLGRSDAREGAEHERGNAILVRDRIHKFHRLVSTLRPPESRVFSLQQPPPGEGTWEPEHTGDFHMEEALDWPGVYLLPGQVSGVALDPKNNLVIFHRGDHVWDGNSFDSKFVYQQIGLGPIEEDTILVIDPNNAAVLQSSGKNLFYLPHGLSIDKDGNYWVTDVALHQVFKLDPNNKEGPVLILGRSMQPGSDQNHFCQPTDVAVDPGTGAIYVSDGYCNSRIVQFSPSGKFITQWGEESSGSSPLPGQFTVPHSLALVPLLGQLCVADRENGRIQCFKTDTKEFVREIKHSSFGRNVFAISYIPGLLFAVNGKPHFGDQEPVQGFVMNFSNGEIIDIFKPVRKHFDMPHDIVASEDGTVYIGDAHTNTVWKFTLTEKLEHRSVKKAGIEVQEIKEAEAVVETKMENKPTSSELQKMQEKQKLIKEPGSGVPVVLITTLLVIPVVVLLAIAIFIRWKKSRAFGDSEHKLETSSGRVLGRFRGKGSGGLNLGNFFASRKGYSRKGFDRLSTEGSDQEKEDDGSESEEEYSAPLPALAPSSS [PAM] | -0.0982 | thermal stability score [3, 4]: -1.73; thermal stability score ([3]; cell cycle stage: mitosis): -2.21
7 | NDUFB10 | 0.185 | 
8 | ARPC3 | 0.222 | 
9 | OXA1L | -0.112 | 
10 | NEGR1 | -0.204 | 
11 | MRPL10 | -0.0658 | 
12 | RPS11 | 0.597 | 
13 | RSL1D1 | 1.5 | 
14 | NOC2L | 0.667 | 
15 | TCEA1 | -0.0112 | 
16 | RAN | 0.0277 | 
17 | MRPL14 | 0.104 | 
18 | RPL11 | 0.596 | 
19 | GNB2L1 | 0.272 | 
20 | CAMKMT | 0.137 | 
21 | RPL6 | 0.908 | 
22 | PHLDA3 | 0.0241 | 
23 | MRPS34 | 0.0157 | 
24 | MIB1 | 0.06 | 

Row | Substance | solubility change mitosis (log2) [2] | other results
25 | MRPL24 | 0.022 | 
26 | POLR2C | 0.102 | 
27 | SUB1 | 0.154 | 
28 | RPS12 | 0.588 | 
29 | POLR2A | 0.228 | 
30 | RPL36A | 0.902 | 
31 | MTOR | -0.154 | 
32 | MWSAGRGGAAWPVLLGLLLALLVPGGGAAKTGAELVTCGSVLKLLNTHHRVRLHSHDIKYGSGSGQQSVTGVEASDDANSYWRIRGGSEGGCPRGSPVRCGQAVRLTHVLTGKNLHTHHFPSPLSNNQEVSAFGEDGEGDDLDLWTVRCSGQHWEREAAVRFQHVGTSVFLSVTGEQYGSPIRGQHEVHGMPSANTHNTWKAMEGIFIKPSVEPSAGHDEL [SDF2L1] | -0.0974 | thermal stability score [3, 4]: 4.06; thermal stability score ([3]; cell cycle stage: mitosis): 1.19
33 | OLR1 | 0.51 | 
34 | TRIM16 | -0.177 | 
35 | RPL38 | 0.638 | 
36 | RPL7 | 0.696 | 
37 | MRPL23 | 0.185 | 
38 | PRKACA | -0.0702 | 
39 | RBM8A | 0.468 | 
40 | NCAPG | -0.0373 | 
41 | FMR1 | 0.261 | 
42 | RPS6 | 0.803 | 
43 | ACADSB | -0.0159 | 
44 | MRPS7 | -0.0353 | 
45 | CTBP1 | -0.0691 | 
46 | LEO1 | -0.0441 | 
47 | DDA1 | 0.3 | 
